Data: US20250361295A1 (published 2025)

B1: ch8-B3-F6-H8 (antibody, V domains shown)
VH: EVKVIESGGGLVQPGGSLKLSCAASGFDFSRYWMSWVRQAPGKGLEWIGEINPDSSAINYTPSLKDKFIISRDNAKNTLYLQMSKVRSEDTALYYCATSMTMDYWGQGTSVTVSS
VL: DIVMTQSPSSMYASLGERVTITCKASQDIKSYLSWYQQKPWKSPKTLIYYATSLADGVPSRFSGSGSGQDYSLTISSLESDDTATYYCLQHGESPYTFGGGTKLEK
B2: h8-B3-F6-H8 (antibody, V domains shown)
VH: EVQLVESGGGLVQPGGSLRLSCAASGFDFSRYWMSWVRQAPGKGLVWIGEINPESSAINYAPSLKDRFTISRDNAKNTLYLQMNSLRAEDTAVYYCATSMTMDYWGQGTLVTVSS
VL: DIQMTQSPSSLSASVGDRVTITCKASQDIKSYLSWYQQKPGKAPKTLIYYATSLAGGVPSRFSGSGSGTDYTLTISSLQPEDFATYYCLQHGESPYTFGGGTKLEIK
B3: h2-H1-D7-E5-D5 (antibody, V domains shown)
VH: EVQLVESGGGLVQPGGSLRLSCAASGFTFSSFGMHWVRQAPGKGLEWVAYISSGSSSIYYADTVKGRFTISRDNAKNSLYLQMNSLRAEDTAVYYCARGTGTGAMDYWGQGTLVTVSS
VL: DIQMTQSPSSLSASVGDRVTITCRTSQDISNYLNWYQQKPGKAPKLLIYYTSKLHSGVPSRFSGSGSGTDFTFTISSLQPEDIATYFCQQGNTLPWTFGGGTKLEIK
B4: IO-202 (antibody, V domains shown)
VH: EVQLLESGGGLVQPGGSLRLSCAASGIDFSNHYYMYWVRQAPGKGLEWIGSIFSGDSASTYYADSAKGRFTISRDNSKNTLYLQMNSLRAEDTAVYYCARGMSTNDWASDLWGQGTLVTVSS
VL: DIQMTQSPSSLSASVGDRVTITCQASESINSIYLAWYQQKPGKAPKLLIYRASTLASGVPSRFSGSGSGTDFTLTISSLQPEDFATYYCQQSYDWGDVENTFGGGTKVEIK
B5: NGM831 (antibody, V domains shown)
VH: EVQLQQSGPEVKPGASVKISCKASGYTFTDYNMDWVKQSHGKSEWIGYIYPSNGGTGYNQKFKSKATLTVDKSSNTAYMELHSLTSEDSAVYYCARVPYYDYLYYYAMDYWGQGTSVTVSS
VL: QIVLSQSPAILSASPGEKVTMACRASSSVSFMHWYQQKPGSSPQPWIYATSNLASGVPARFSGSGSGTSYSLTISRVEAEDAATYYCQQWSTNPYMYTFGGGTKLEIK
B6: ch2-H1-D7-E5-D5 (antibody, V domains shown)
VH: EVHLVESGGGLVQPGGSRKLSCAASGFTFSSFGMHWVRQPPEKGLEWVAYISSGSSSIYYADTVKGRFTISRDNPKNTLFLQMTSLRSEDTAMYYCARGTGTGAMDYWGQGTSVTVSS
VL: DIQMTQTTSSLSASLGDRVTISCRTSQDISNYLNWYQQKPDGTVKLLIYYTSKLHSGVPSRFSGSGSGTDYSLTISNLDQEDIATYFCQQGNTLPWTFGGGTKLEIK

Tests used:
human LILRB4 [1] = biological target: T1, human LILRB4 (human, UniProt Q8NHJ6 22-448); assay: FACS
T1 sequence (Q8NHJ6 22-448): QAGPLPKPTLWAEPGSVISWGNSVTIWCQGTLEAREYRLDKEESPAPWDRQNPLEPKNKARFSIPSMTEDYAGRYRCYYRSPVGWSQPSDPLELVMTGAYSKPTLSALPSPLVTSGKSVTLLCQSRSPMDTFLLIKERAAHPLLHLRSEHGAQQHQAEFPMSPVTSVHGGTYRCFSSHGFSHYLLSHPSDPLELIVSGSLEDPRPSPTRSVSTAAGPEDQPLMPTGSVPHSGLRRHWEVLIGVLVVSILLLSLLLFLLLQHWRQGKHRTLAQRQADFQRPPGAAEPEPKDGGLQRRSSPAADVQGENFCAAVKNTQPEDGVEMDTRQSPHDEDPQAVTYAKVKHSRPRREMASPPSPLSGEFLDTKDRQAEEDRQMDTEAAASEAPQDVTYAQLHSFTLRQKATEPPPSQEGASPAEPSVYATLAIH

human LILRB4 [2] = biological target: T1, human LILRB4; assay: ELISA; panel B
human LILRB4 [3] = biological target: T1, human LILRB4; assay: competitive FACS; competition with h2-H1-D7-E5-D5
human LILRB4 [4] = biological target: T1, human LILRB4; assay: ELISA; panel A
human LILRB4 [5] = biological target: T1, human LILRB4; assay: competitive FACS; competition with NGM831

Binder	EC50 (human LILRB4 [1])	EC50 (human LILRB4 [2])	EC50 (human LILRB4 [3])	EC50 (human LILRB4 [4])	EC50 (human LILRB4 [5])
B1	1490 pM	31.7 pM	–	–	–
B2	–	28.6 pM	6330 pM	–	–
B3	–	–	–	7960 pM	–
B4	–	14.1 pM	–	17.2 pM	–
B5	849 pM	26.5 pM	–	37.2 pM	3670 pM
B6	–	–	–	1120 pM	–
